According to publication PMC8990011:

Molecular target: Bax, endogenous in HeLa cells (human (endogenous in HeLa)) (UniProt Q07812)
Sequence (Q07812 whole entry): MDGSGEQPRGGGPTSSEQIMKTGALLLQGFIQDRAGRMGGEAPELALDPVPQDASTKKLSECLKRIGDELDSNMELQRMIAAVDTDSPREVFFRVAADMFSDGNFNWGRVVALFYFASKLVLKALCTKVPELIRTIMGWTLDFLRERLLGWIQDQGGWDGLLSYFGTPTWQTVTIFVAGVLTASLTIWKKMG

6xHis-Bcl-xL^K87D (from UniProt Q07817-1 1-233) (natural protein)
inhibition of cBid- and Bim-triggered Bax-pore formation in ANTS/DPX liposomes (100 nM Bax, 20 nM cBid or Bim, 8-500 nM Bcl-xL protein), IC50: 80 nM
